# According to patent publication US20090041754A1 (Astellas, published 2009):
# B1: GST fusion DHFR protein (other, human, UniProt P00374 1-187, looked up)
# chain: MVGSLNCIVAVSQNMGIGKNGDLPWPPLRNEFRYFQRMTTTSSVEGKQNLVIMGKKTWFSIPEKNRPLKGRINLVLSRELKEPPQGAHFLSRSLDDALKLTEQPELANKVDMVWIVGGSSVYKEAMNHPGHLKLFVTRIMQDFESDTFFPEIDLEKYKLLPEYPGVLSDVQEEKGIKYKFEVYEKND
# notes: domain: complete length; Expressed in E. coli BL21 and purified on glutathione Sepharose beads (45 kDa); also called GST-DHFR; not shown: GST tag of vector pGEX-6P-1 (Amersham)
# Biological target: T1, human ATP5B protein with C-terminal V5 epitope, made in vitro from pcDNA-ATP5B (human, UniProt P06576 1-529, radioisotope-labelled (L-[35S] Pro-mix))
# T1 construct: In vitro transcription and translation (TNT system); about 60 kDa; also called wild type ATP5B
# T1 sequence (P06576 whole entry): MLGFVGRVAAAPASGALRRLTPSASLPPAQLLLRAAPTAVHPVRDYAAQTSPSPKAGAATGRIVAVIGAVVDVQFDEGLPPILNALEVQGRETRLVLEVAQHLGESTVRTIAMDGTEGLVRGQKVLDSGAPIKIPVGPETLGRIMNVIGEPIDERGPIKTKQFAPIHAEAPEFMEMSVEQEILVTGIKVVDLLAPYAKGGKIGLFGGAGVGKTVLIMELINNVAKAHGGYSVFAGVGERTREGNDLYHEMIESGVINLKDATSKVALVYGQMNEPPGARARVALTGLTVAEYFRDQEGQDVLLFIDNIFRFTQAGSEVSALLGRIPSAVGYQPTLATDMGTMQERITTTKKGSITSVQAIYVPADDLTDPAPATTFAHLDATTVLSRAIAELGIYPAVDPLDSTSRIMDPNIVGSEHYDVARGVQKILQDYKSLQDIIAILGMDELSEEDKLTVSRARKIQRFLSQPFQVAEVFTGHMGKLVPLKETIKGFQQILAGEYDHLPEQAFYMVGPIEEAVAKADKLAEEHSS
# Test: GST pull-down of 35S-labelled in vitro translated human ATP5B with GST-DHFR on beads, autoradiography; condition without MTX-phenformin
# Method: A 15 μl portion of this human ATP5B protein preparation liquid and 1 μg for each of the GST protein or GST-DHFR, purified on the glutathione Sepharose beads, were mixed and shaken at 4° C. for 1 hour after adding 0.3 ml of buffer A thereto. Thereafter, the protein binding to the GST protein or GST-DHFR on beads was co-precipitated by centrifugation.
binder,measurement,value
B1,binding result,no binding
